Experiments:
[1] = biological target: T1, Recombinant His-tagged HP1γ (CSD) (human, UniProt Q13185 110-183); test: pull-down; His-tagged HP1γ forms incubated with GST-KDM2A fragments in 300 mM NaCl, 50 mM Na-phosphate pH 7.0, 4 °C 1 h; collected on TALON resin (1% NP40 washes); SDS-PAGE; conditions: both partners purified
T1 construct: HP1γ, human, chromoshadow domain construct, amino acids 110-183; Limits 110-183 are those printed for the HP1γ (CSD) cDNA; the His-tag plasmids are described only as 'His-tag HP1γ and its mutants'; also called CSD of HP1γ; His-HP1γ mutant; source: E. coli DH5α (pCold I), isolated with TALON His-tag resin, dialysed
T1 sequence (Q13185 110-183): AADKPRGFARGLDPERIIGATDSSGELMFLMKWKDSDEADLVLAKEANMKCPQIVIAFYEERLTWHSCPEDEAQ

[2] = biological target: T2, Recombinant His-tagged HP1γ (human, UniProt Q13185 1-183); test: as above; conditions: both partners purified
T2 construct: HP1γ, human; the cDNA used encodes 183 amino acids; pCold I vector; also called His-HP1γ; His-tag HP1γ; source: E. coli DH5α (pCold I), isolated with TALON His-tag resin, dialysed
T2 sequence (Q13185 whole entry): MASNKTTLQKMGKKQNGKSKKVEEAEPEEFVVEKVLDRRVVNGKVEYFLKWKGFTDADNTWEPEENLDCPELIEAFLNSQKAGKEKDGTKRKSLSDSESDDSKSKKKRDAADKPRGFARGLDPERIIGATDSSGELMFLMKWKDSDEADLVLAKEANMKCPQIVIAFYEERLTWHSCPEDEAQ

binding result [1]: binds
binding result [2]: binds
B1: recombinant KDM2A fragment (amino acids 785–817) fused with GST (domain or fragment, UniProt Q9Y2K7 785-817, looked up)
chain: ELSEVEKAKIRGSYLTVTLQRPTKELHGTSIVP
notes: also called GST-KDM2A fragment; source: E. coli DH5α (pGEX-3X), isolated on glutathione-Sepharose, dialysed
